The results in this text go back to paper doi:10.1101/2020.07.08.194100.

Assay [1] addresses GST-RhoA^N19 (inactive RhoA) (UniProt P61586). Nature of the assay: pull-down.
In assay [2] the target is GST-RhoA^V14 (constitutively active RhoA) (UniProt P61586). Nature of the assay: pull-down.

For the substance “HA-tagged wild-type diacylglycerol kinase ζ (HA-DGKζ) (enzyme)”, the fold change of binding after PMA against vehicle control in assay [1] and in assay [2] was 2 fold each time.
